± gives the uncertainty stated by the source.
Assay: protein stability index of a GFP-peptide fusion (yeast GPS) (PSI 1-4); higher = more stable; sorted into four equal gates, so the index is relative within each strain
In short: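 The protein stability index combines read frequencies across sorting gates, each weighted by its gate number and then summed. To obtain those frequencies, a pooled yeast library of GFP fusions to tiled 17-residue yeast protein peptides, on a plasmid also expressing Cherry, was grown to mid-log phase in leucine-free medium. The cells were sorted into four equal gates by GFP/Cherry ratio before plasmid amplification by PCR and Illumina sequencing.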

Row | Sequence | protein stability index (doa10∆) | protein stability index (pdr5∆) | protein stability index (san1∆) | protein stability index (ubr1∆)
1 | MAESHRLYVKGKHLSYQ [RPL33A] | 2.71 ± 0.077 | 2.84 ± 0.068 | 2.52 ± 0.073 | 2.62 ± 0.058
2 | MVHREFLKLANGGKFSK [RGR1] | 3.22 ± 0.08 | 2.74 ± 0.074 | 3.14 ± 0.12 | 2.91 ± 0.07
3 | TIRQIILPDSLNLDSLL [SMD1] | 3.03 ± 0.076 | 2.67 ± 0.065 | 3.11 ± 0.055 | 2.7 ± 0.046
4 | VKIHSQESLLSRTFDKY [SRP72] | 2.92 ± 0.053 | 2.79 ± 0.071 | 2.96 ± 0.055 | 2.57 ± 0.041
5 | ESGIKPYFEQKIQETEL [RPT6] | 2.93 ± 0.13 | 3.24 ± 0.14 | 2.64 ± 0.061 | 3.23 ± 0.094
6 | GELGEIRALQPKLKEGA [YIL149C/MLP2] | 3.15 ± 0.11 | 3.34 ± 0.19 | 2.81 ± 0.15 | 3.36 ± 0.093
7 | VWFSHPRRFGKGSRQCR [RPS29B] | 3.02 ± 0.1 | 3.21 ± 0.065 | 3.44 ± 0.091 | 3.23 ± 0.071
8 | ELSDSWRAHDSSIVAID [YGL100W/SEH1] | 2.9 ± 0.084 | 2.72 ± 0.11 | 3.24 ± 0.054 | 2.8 ± 0.08
9 | GDYGSAKCNSLLQLKYF [POP5] | 2.31 ± 0.049 | 2.24 ± 0.056 | 2.23 ± 0.067 | 2.59 ± 0.071
10 | GIRAPKGALMYGPPGTG [RPT5] | 2.86 ± 0.14 |  |  | 1.32 ± 0.11
11 | KKVLEIDFFKTDDSFED [BRN1] | 2.09 ± 0.041 | 2.08 ± 0.055 | 2.46 ± 0.058 | 2.18 ± 0.042
12 | FRCKETHSYNFMRQNLE [RPC82] | 2.52 ± 0.078 | 1.88 ± 0.093 | 1.96 ± 0.093 | 2.44 ± 0.065
13 | QFPEIAYPGKLICPQYG [CSL4] | 2.01 ± 0.054 | 2.11 ± 0.059 | 1.94 ± 0.1 | 2.17 ± 0.053
14 | TELKKKLDDLENTKDNL [SMC1] | 3.01 ± 0.11 | 2.94 ± 0.12 | 3.09 ± 0.12 | 2.72 ± 0.14
15 | RRSTPFSKIAEYYRIQK [ESC2] | 2.77 ± 0.071 | 2.9 ± 0.094 | 2.72 ± 0.078 | 2.94 ± 0.11
16 | SSLFLDGLEKAAFNGVT [FAS2] | 2.3 ± 0.06 | 2.12 ± 0.062 | 2.02 ± 0.092 | 2.88 ± 0.063
17 | RHSGKVYPITLSTDATS [UBP6] | 1.98 ± 0.072 | 2.76 ± 0.066 | 2.74 ± 0.057 | 2.02 ± 0.045
18 | DHNALPQRCTFAFEAID [POP1] | 2.36 ± 0.09 | 2.84 ± 0.077 | 2.79 ± 0.089 | 3.09 ± 0.057
19 | DSVFEQNEMIDAIAVTK [RPL3] | 2.57 ± 0.095 | 2.8 ± 0.12 | 2.31 ± 0.1 | 2.51 ± 0.042
20 | ISALTQTEIKDIILGQN [PRP8] | 2.1 ± 0.054 | 2.51 ± 0.061 | 1.92 ± 0.077 | 1.99 ± 0.052
21 | GSRTTTNHVLEVFSVLG [RPO31] | 2.93 ± 0.13 | 2.76 ± 0.14 |  | 
22 | KDTIVKEAEDKTLVALE [RPC37] | 3.4 ± 0.11 | 3.11 ± 0.093 | 3.33 ± 0.19 | 3.18 ± 0.097
23 | KVSSAEYYAKKRAFTKK [RPL16A] | 3 ± 0.098 | 3.32 ± 0.099 | 2.98 ± 0.092 | 3.36 ± 0.082
24 | YDSDSDSSVEDSTDNEN [LIN1] | 3.08 ± 0.071 | 2.95 ± 0.1 | 2.91 ± 0.12 | 3.1 ± 0.042
25 | KIRELEAELSSTKVENS [YIL149C/MLP2] | 2.79 ± 0.13 | 3.12 ± 0.099 | 3.23 ± 0.089 | 3.12 ± 0.064
26 | NFTCNRKILNFKKDLVI [SWI1] | 2.66 ± 0.081 | 2.88 ± 0.063 | 2.46 ± 0.1 | 2.87 ± 0.075
27 | KFHSELQYLDKHIKNLE [RPN12] | 3.14 ± 0.12 | 2.7 ± 0.17 | 2.84 ± 0.13 | 3.15 ± 0.072

Row | Sequence | protein stability index (doa10∆) | protein stability index (pdr5∆) | protein stability index (san1∆) | protein stability index (ubr1∆)
28 | TLELSAQFRVPRYHSKN [SWP82] | 2.52 ± 0.067 | 2.72 ± 0.056 | 2.49 ± 0.065 | 2.74 ± 0.041
29 | HHELVPKHIRLSSDEKR [RPB5] | 2.9 ± 0.12 | 3.54 ± 0.12 | 2.82 ± 0.18 | 3.16 ± 0.073
30 | KAMDIPIGRHEELLAQY [SWP82] | 2.07 ± 0.044 | 2.25 ± 0.043 | 2.13 ± 0.068 | 2 ± 0.029
31 | LLISDTESNELIQKLQN [IRR1] | 2.79 ± 0.076 | 2.85 ± 0.084 | 2.38 ± 0.073 | 2.9 ± 0.084
32 | SRILYKAIRGMVSHKTA [RPL16B] | 1.26 ± 0.057 | 1.2 ± 0.066 | 1.22 ± 0.16 | 1.25 ± 0.063
33 | IFLKRKDFTNKNLIQLI [SRB8] | 1.31 ± 0.053 | 1.43 ± 0.041 | 1.28 ± 0.086 | 1.4 ± 0.041
34 | AEQFKHQHGDKVDIFEI [FAS2] |  |  |  | 3.06 ± 0.21
35 | PGNGKHASENISLSFSR [SIR4] | 2.49 ± 0.081 | 2.88 ± 0.062 | 2.97 ± 0.061 | 3.05 ± 0.058
36 | IIKQTVHPIPDVAFADG [YMR129W/POM152] | 2.8 ± 0.053 | 2.89 ± 0.062 | 2.77 ± 0.046 | 2.82 ± 0.043
37 | TAPANTTDANGSKENYQ [MED2] | 2.08 ± 0.066 | 2.06 ± 0.058 | 3.02 ± 0.047 | 2.86 ± 0.066
38 | NSLLLDSTPEEVSCKLL [YML103C/NUP188] | 2.67 ± 0.081 | 3.16 ± 0.08 | 2.97 ± 0.085 | 2.71 ± 0.08
39 | LDNSKMDYHFIFSYLQF [RGR1] | 2.45 ± 0.061 | 1.72 ± 0.056 | 1.89 ± 0.047 | 1.8 ± 0.065
40 | NKPAIKEDSTIQDSNGD [SWI3] | 2.92 ± 0.076 | 3.05 ± 0.073 | 3.14 ± 0.06 | 3.04 ± 0.054
41 | LWVFQAFTCFCIKKIME [SRB8] | 1.69 ± 0.044 | 1.52 ± 0.04 | 1.27 ± 0.073 | 1.48 ± 0.037
42 | LDIGLQRTTTGARVFGA [RPL5] | 1.35 ± 0.073 | 1.29 ± 0.096 | 1.31 ± 0.13 | 1.12 ± 0.071
43 | FTVDKKIAERSLLLKNY [SKP1] | 3.44 ± 0.15 | 3.11 ± 0.14 | 2.92 ± 0.14 | 3.38 ± 0.27
44 | SIYKYIHLNELLTNDES [SNF12] | 2.54 ± 0.063 | 2.71 ± 0.053 | 2.19 ± 0.071 | 2.63 ± 0.084
45 | LPVNIRRIIQNAQQTFH [RPO21] | 2 ± 0.053 | 2.01 ± 0.05 | 2.64 ± 0.075 | 1.56 ± 0.051
46 | GHIPWHILAVKKMMNTL [SSN2] | 2.45 ± 0.065 | 2.85 ± 0.098 | 2.74 ± 0.1 | 1.1 ± 0.16
47 | YKDSLALINDLLREFKK [RPN6] |  | 2.42 ± 0.22 | 1.86 ± 0.22 | 3.21 ± 0.23
48 | SFFIASQLQEQFNKILP [FAS1] | 2.69 ± 0.15 | 3.13 ± 0.15 | 2.54 ± 0.081 | 2.77 ± 0.07
49 | VPIERVAQLKPFFKYID [RPC37] | 2.54 ± 0.062 | 2.24 ± 0.054 | 2.34 ± 0.054 | 2.71 ± 0.052
50 | AADTSIVEQDKSMELFY [YJL039C/NUP192] | 2.07 ± 0.11 | 2.61 ± 0.13 | 2.63 ± 0.084 | 2.73 ± 0.2
51 | TGAGKGSIGAEVLQGLL [FAS2] | 3.48 ± 0.088 | 3.56 ± 0.063 | 3.47 ± 0.066 | 2.96 ± 0.067
52 | KTIQINNEKVVQYLRSV [YML031W/NDC1] | 3.23 ± 0.17 | 3.24 ± 0.12 |  | 
53 | NDIDDLDMELAELDPSL [SEC65] | 3.34 ± 0.15 | 3.23 ± 0.089 | 3.08 ± 0.077 | 3.03 ± 0.073
54 | PGFDEFQLIDMKDKEIN [CSI1] | 3.34 ± 0.14 | 3 ± 0.11 | 3.41 ± 0.045 | 3.45 ± 0.061

Reference: the supplement of paper PMC9732359
